Experimental findings from article PMC5840032 (Bioorganic & medicinal chemistry, 2017) are described below.

The target in this experiment is anthrax lethal factor (LF) protease (UniProt P15917 34-809). Nature of the experiment: enzyme inhibition assay.
Chain of anthrax lethal factor (LF) protease (P15917 34-809): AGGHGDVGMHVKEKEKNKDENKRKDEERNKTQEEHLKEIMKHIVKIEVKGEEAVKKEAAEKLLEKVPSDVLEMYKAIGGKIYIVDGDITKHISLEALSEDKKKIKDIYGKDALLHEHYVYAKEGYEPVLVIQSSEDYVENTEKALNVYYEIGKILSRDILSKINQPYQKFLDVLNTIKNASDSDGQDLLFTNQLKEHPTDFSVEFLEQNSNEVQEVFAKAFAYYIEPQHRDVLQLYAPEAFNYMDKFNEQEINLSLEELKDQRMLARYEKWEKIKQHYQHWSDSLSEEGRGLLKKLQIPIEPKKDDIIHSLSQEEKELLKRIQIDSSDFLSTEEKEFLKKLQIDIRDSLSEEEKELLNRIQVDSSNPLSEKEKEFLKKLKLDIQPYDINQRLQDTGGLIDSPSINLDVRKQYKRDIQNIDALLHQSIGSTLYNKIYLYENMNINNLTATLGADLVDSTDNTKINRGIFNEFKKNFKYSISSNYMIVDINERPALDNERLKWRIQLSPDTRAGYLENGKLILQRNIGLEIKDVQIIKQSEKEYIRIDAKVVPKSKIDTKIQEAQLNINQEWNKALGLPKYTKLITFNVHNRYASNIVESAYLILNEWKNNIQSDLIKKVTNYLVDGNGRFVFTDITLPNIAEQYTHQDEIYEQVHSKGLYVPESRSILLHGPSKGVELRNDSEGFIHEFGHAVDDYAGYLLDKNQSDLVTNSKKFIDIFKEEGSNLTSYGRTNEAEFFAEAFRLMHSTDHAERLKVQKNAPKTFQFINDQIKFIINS

Molecule GFCRCACLHGVCRCICTR (not fully specified; backbone-cyclized; three disulfide bonds) [RTD-1 analog clone #14] registered a Ki of 946 ± 47 nM.
GFCRCPCSRYGCWCICTR (not fully specified; backbone-cyclized; three disulfide bonds) [RTD-1 analog clone #52] had a Ki of 946 ± 58 nM.

The term Ki denotes the equilibrium dissociation constant of an inhibitor or competing ligand from its target.
